Results from patent US20210403579A1 (DELINIA, published 2021).

T1: Human ST2 (human, UniProt Q01638 19-328, limits assumed)
T1 construct: also called human ST2 protein; Interleukin 1 receptor-like 1
T1 sequence (looked up): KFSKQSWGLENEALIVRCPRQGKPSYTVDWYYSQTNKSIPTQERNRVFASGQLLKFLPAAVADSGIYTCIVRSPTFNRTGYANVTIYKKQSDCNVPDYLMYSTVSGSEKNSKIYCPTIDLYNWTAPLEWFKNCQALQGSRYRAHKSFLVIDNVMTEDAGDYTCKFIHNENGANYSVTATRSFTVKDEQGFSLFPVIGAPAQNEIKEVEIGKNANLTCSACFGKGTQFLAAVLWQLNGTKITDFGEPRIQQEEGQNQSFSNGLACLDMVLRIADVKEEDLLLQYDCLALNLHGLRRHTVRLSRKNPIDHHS


target: T1, Human ST2; test: SPR (Carterra), antibody immobilized, ST2 analyte
Protocol: Binding of the reformatted human ST2 antibodies to the human and mouse ST2 proteins was evaluated by surface plasmon resonance (SPR), using a high throughput antibody screening and characterization platform from Carterra (Salt Lake City, Utah).

Binder | Kd [nM] | koff [s⁻¹] | kon [M⁻¹ s⁻¹]
Human ST2 IgG1 Antibody 47 (antibody, V domains shown, IgG1; also called ST2 Antibody 47) VH: QVQLVQSGAEVKKPGSSVKVSCKASGYTFTNYYMHWVRQAPGQGLEWMGGIIPIFGTANYAQKFQGRVTITADESTSTAYMELSSLRSEDTAVYYCARGGYYDSSQFDIWGQGTMVTVSS VL: not shown | 413 | 0.12 | 300000
Human ST2 IgG1 Antibody 52 (antibody, V domains shown, IgG1; also called ST2 Antibody 52) VH: QVQLVQSGAEVKKPGSSVKVSCKASGGTFSNYAISWVRQAPGQGLEWMGWISAYNGNTNYAQKFQGRVTITADESTSTAYMELSSLRSEDTAVYYCARLSTVTTRPYYYYGMDVWGQGTTVTVSS VL: DIVMTQSPLSLPVTPGEPASISCRSSQSLLHSNGYNYLDWYLQKPGQSPQLLIYAASSLQGGVPDRFSGSGSGTDFTLKISRVEAEDVGVYYCMQGTHWPTFGQGTKVEIKR | 932 | 0.15 | 160000
Human ST2 IgG1 Antibody 49 (antibody, V domains shown, IgG1; also called ST2 Antibody 49) VH: QVQLVQSGAEVKKPGASVKVSCKASGGTLSSYAISWVRQAPGQGLEWMGGISPYNGKANYAEKLQGRVTMTRDTSTSTVYMELSSLRSEDTAVYYCAIRSIAAREGVYYYYMDVWGKGTTVTVSS VL: not shown | 269 | 0.085 | 320000
Human ST2 IgG1 Antibody 46 (antibody, V domains shown, IgG1; also called ST2 Antibody 46) VH: EVQLLESGGGLVKPGGSLRLSCAASGFTFSSYWMSWVRQAPGKGLEWVSSISGTSNYMYYADSVKGRFTISRDDSKNTLYLQMNSLKTEDTAVYYCARDRGFLGYFDYWGQGTLVTVSS VL: DIQMTQSPSSLSASVGDRVTITCQASQYISNYLNWYQQKPGKAPKLLIYGASTLQSGVPSRFSGSGSGTDFTLTISSLQPEDFATYYCQQSQSTPLTFGPGTKVDIKR | 339 | 0.042 | 120000
Human ST2 IgG1 Antibody 56 (antibody, V domains shown, IgG1; also called ST2 Antibody 56) VH: EVQLLESGGGLVKPGGSLRLSCAASGFTFSSYAMSWVRQAPGKGLEWVSSISSDSYYKYHADSVKGRFTISRDDSKNTLYLQMNSLKTEDTAVYYCAKGADYDFWSGYLDYWGQGTLVTVSS VL: DIQMTQSPSSLSASVGDRVTITCRASQGISSYLAWYQQKPGKAPKLLIYRASTLQSGVPSRFSGSGSGTDFTLTISSLQPEDFATYYCQQSYNTPWTFGQSTKVEIKR | 970 | 0.14 | 150000
Human ST2 IgG1 Antibody 58 (antibody, V domains shown, IgG1; also called ST2 Antibody 58) VH: EVQLLESGAEVKKPGSSVKVSCKASGGTFSSYAISWVRQAPGQGLEWMGGIIPIFGTANYAQKFQGRVTITADKSTSTAYMELSSLRSEDTAVYYCARPRLAVAGGWYFDLWGRGTLVTVSS VL: DIQMTQSPSSLSASVGDRVTITCQASQDISNYLNWYQQKPGKAPKLLIYAASSLQSGVPSRFSGSGSGTDFTLTISSLQPEDFATYYCQQSFSSTPTFGQGTKLEIKR | 628 | 0.14 | 220000
Human ST2 IgG1 Antibody 53 (antibody, V domains shown, IgG1; also called ST2 Antibody 53) VH: QVQLVQSGAEVKKPGSSVKVSCKASGGTFSSYAISWVRQAPGQGLEWMGGIIPIFGTANYAQKFQGRVTITADESTSTAYMELSSLRSEDTAVYYCARVPADYYYYYYGMDVWGQGTTVTVSS VL: not shown | 740 | 0.12 | 160000
Human ST2 IgG1 Antibody 45 (antibody, V domains shown, IgG1; also called ST2 Antibody 45) VH: QVQLVQSGAEVKKPGSSVKVSCKASGGTFSSYAISWVRQAPGQGLEWMGGIVPIFETANYAQKFQGRVTITADESTSTAYMELSSLRSEDTAVYYCARDTPNFDYWGQGTLVTVSS VL: not shown | 22 | 0.02 | 920000
Human ST2 IgG1 Antibody 59 (antibody, V domains shown, IgG1; also called ST2 Antibody 59) VH: EVQLLESGGGVVQPGRSLRLSCAASGFTFSSYWMSWVRQAPGKGLEWVSSISSDSSYKYYADSVKGRFTISRDNSKNTLYLQMNSLRAEDTAVYYCARDGLRWDAFDIWGQGTMVTVSS VL: not shown | 1000 | 0.19 | 190000
Human ST2 IgG1 Antibody 60 (antibody, V domains shown, IgG1; also called ST2 Antibody 60) VH: QVQLVQSGAEVKKPGASVKVSCKASGYTFTDHYLHWVRQAPGQGLEWMGIINPSGGYTSHAQKFQGRVTMTRDTSTSTVYMELSSLRSEDTAVYYCARDRFRELLGSRYYGMDVWGQGTTVTVSS VL: DIQMTQSPSSLSASVGDRVTITCRASQDLSNHLAWYQQKPGKAPKLLIYAASTLQSGVPSRFSGSGSGTDFTLTISSLQPEDFATYYCQQYHDWPLTFGQGTKVEIKR | 1100 | 0.12 | 110000
Human ST2 IgG1 Antibody 42 (antibody, V domains shown, IgG1; also called ST2 Antibody 42) VH: QVQLVQSGAEVKKPGASVKVSCKASGYTFNSHWVHWVRQAPGQGLEWMGWISAYNGNTNYAQKLQGRVTMTRDTSTSTVYMELSSLRSEDTAVYYCASGDYPYYYYGMDVWGQGTTVTVSS VL: DIQMTQSPSSLSASVGDRVTITCRASQGVANWLAWYQQKPGKAPKLLIYSASNLQSGVPSRFSGSGSGTDFTLTISSLQPEDFATYYCQQSSSFPLTFGQSTRLEIKR | 278 | 0.088 | 320000
Human ST2 IgG1 Antibody 55 (antibody, V domains shown, IgG1; also called ST2 Antibody 55) VH: QVQLVQSGAEVKKPGSSVKVSCKASGGTFSSYAISWVRQAPGQGLEWMGDIIPVIDTTNYAQKFQGRVTITADESTSTAYMELSSLRSEDTAVYYCARASGYPFGRWFDPWGQGTLVTVSS VL: not shown | 349 | 0.1 | 300000
Human ST2 IgG1 Antibody 50 (antibody, V domains shown, IgG1; also called ST2 Antibody 50) VH: QVQLVQSGAEVKKPGASVKVSCKASGAAFNTVAISWVRQAPGQGLEWMGWMNPNSGNTGYAQKFQGRVTMTRDTSTSTVYMELSSLRSEDTAVYYCARTPAAAGTVYFDYWGQGTLVTVSS VL: not shown | 213 | 0.075 | 350000

More lines, in order of falling Kd, values ahead:

Kd [nM] | koff [s⁻¹] | kon [M⁻¹ s⁻¹] | Binder
154 | 0.043 | 280000 | Human ST2 IgG1 Antibody 51 (antibody, V domains shown, IgG1; also called ST2 Antibody 51) VH: QVQLVQSGAEVKKPGSSVKVSCKASGGSFSRSSISWVRQAPGQGLEWMGGIIPIFGAPVYAQDLQGRVTITADESTSTAYMELSSLRSEDTAVYYCARDHPHCSSTSCYYGMDVWGQGTTVTVSS VL: EIVMTQSPATLSVSPGERATLSCRASQTISSSYLAWYQQKPGQAPRLLIYGASTRATGIPARFSGSGSGTEFTLTISSLQSEDFAVYYCQQYGSSPLTFGGGTKVEIKR
146 | 0.0074 | 51000 | Human ST2 IgG1 Antibody 43 (antibody, V domains shown, IgG1; also called ST2 Antibody 43) VH: QVQLVQSGAQVKKPGASVKVSCKASGYTFSSYYIHWVRQAPGQGLEWMGWINPHSGGTNYGQEFQGRVTMTRDTSTSTVYMELSSLRSEDTAVYYCARDSSGMGATIGYWGQGTLVTVSS VL: DIQMTQSPSSLSASVGDRVTITCRASQSVNRRLAWYQQKPGKAPKLLIYAASTLQSGVPSRFSGSGSGTDFTLTISSLQPEDFATYYCQQGNSFPITFGQGTKVEIKR
146 | 0.024 | 170000 | Human ST2 IgG1 Antibody 48 (antibody, V domains shown, IgG1; also called ST2 Antibody 48) VH: EVQLLQSGGGLVQPGGSLRLSCAASEFTFSNAWMSWVRQAPGKGLEWVSTISGTSRYTYYADSVKGRFTISRDNSKNSLYLQMNSLRAEDTAVYYCARDQDGRLDYWGQGTLVTVSS VL: DIQMTQSPSSLSASVGDRVTITCRASQNIGSWLAWYQQKPGKAPKLLIYRASTLQSGVPSRFSGSGSGTDFTLTISSLQPEDFATYYCQQSYSTPYTFGQGTKVEIKR
140 | 0.072 | 510000 | Human ST2 IgG1 Antibody 57 (antibody, V domains shown, IgG1; also called ST2 Antibody 57) VH: QVQLVQSGAEVKKPGASVKVSCKASGYTFTGYYMHWVRQAPGQGLEWMGVINPSGGSTSYAQKFQGRVTMTRDTSTSTVYMELSSLRSEDTAVYYCARGDYYYGSGSDYYYYYGMDVWGQGTLVTVSS VL: DIQMTQSPSSLSASVGDRVTITCRASQGVTSWLAWYQQKPGKAPKLLIYAASTLQSGVPSRFSGSGSGTDFTLTISSLQPEDFATYYCQQANSFPLTFGGGTKVEIKR
100 | 0.024 | 240000 | Human ST2 IgG1 Antibody 44 (antibody, V domains shown, IgG1; also called ST2 Antibody 44) VH: EVQLLESGGGLVKPGGSLRLSCAASGFTFSSYWMSWVRQAPGKGLEWVSAISGTAINTYYADSVKGRFTISRDDSKNTLYLQMNSLKTEDTAVYYCARVRRDSSGGGAFDIWGQGTMVTVSS VL: DIQMTQSPSSLSASVGDRVTITCRASQGISNNLNWYQQKPGKAPKLLIYAASSLQTGVPSRFSGSGSGTDFTLTISSLQPEDFATYYCQQSYSTPPTFGQGTKVEIKR
99 | 0.0024 | 24000 | Human ST2 IgG1 Antibody 41 (antibody, V domains shown, IgG1; also called ST2 Antibody 41) VH: QVQLVQSGAEVKKPGSSVKVSCKASGYTFTDYQMHWVRQAPGQGLEWVGVINPGGGSTTYAQTFQGRVTITADESTSTAYMELSSLRSEDTAVYYCARGGVEYSSSWDYYYYYGMDVWGQGTTVTVSS VL: not shown
81 | 0.029 | 360000 | Human ST2 IgG1 Antibody 54 (antibody, V domains shown, IgG1; also called ST2 Antibody 54) VH: EVQLLESGGGLVQPGGSLRLSCAASGFTVSSNYMSWVRQAPGKGLEWVSAISGSGGSTYYADSVKGRFTISRDNSKNTLYLQMNSLRAEDTAVYYCARGRFGSRDVWGKGTTVTVSS VL: not shown
76 | 0.055 | 730000 | Human ST2 IgG1 Antibody 65 (antibody, V domains shown, IgG1; also called ST2 Antibody 65) VH: QVQLVQSGAEVKKPGSSVKVSCKASGGTFSSYAISWVRQAPGQGLEWMGGIIPIFGTANYAQKFQGRVTITADESTSTAYMELSSLRSEDTAVYYCARDNPDFDYWGQGTLVTVSS VL: DIQMTQSPSSLSASVGDRVTITCRASQGISNYLNWYQQKPGKAPKLLIYAASSLQSGVPSRFSGSGSGTDFTLTISSLQPEDFATYYCQQSYRTPITFGQGTRLEIKR
